Three proteins from US20100168031 can be followed below.

Series [1] has as its target T1, L(+)-biotinyl-aminohexanoyl-Glu-Asp-Glu-Asp-Asp-Tyr-His-Asn-Pro-Gly-Gly-OH (SEQ ID NO:14) (not fully specified).
T1 chain: EDEDDYHNPGG

In series [2] the target is T2, L(+)-biotinyl-aminohexanoyl-Glu-Glu-Gly-Ala-Pro-Asp-Tyr-Glu-Asn-Leu-Gln-Glu-Leu-Asn (SEQ ID NO:12).
T2 chain: EEGAPDYENLQELN

Series [3] deals with T3, L(+)-biotinyl-aminohexanoyl-Glu-Ser-Ile-Asp-Asp-Tyr-Val-Asn-Val-Pro-Glu-Gly-OH (SEQ ID NO:13) (not fully specified).
T3 chain: ESIDDYVNVPEG

Series [4] deals with T4, L(+)-biotinyl-aminohexanoyl-Cys(H)-Asp-Asp-Tyr-Glu-Phe-Leu-NH2 (SEQ ID NO:25).
T4 chain: CDDYEFL

Series [5] deals with compounds represented by SEQ ID NO:12, SEQ ID NO:13, SEQ ID NO:14 or SEQ ID NO:25.
Series [6] addresses compounds of SEQ ID NO:12; SEQ ID NO: 13; or SEQ ID NO: 14.

B1: recombinant full-length human Bruton's tyrosine kinase (Btk) (protein)
chain: MAAVILESIFLKRSQQKKKTSPLNFKKRLFLLTVHKLSYYEYDFERGRRGSKKGSIDVEKITCVETVVPEKNPPPERQIPRRGEESSEMEQISIIERFPYPFQVVYDEGPLYVFSPTEELRKRWIHQLKNVIRYNSDLVQKYHPCFWIDGQYLCCSQTAKNAMGCQILENRNGSLKPGSSHRKTKKPLPPTPEEDQILKKPLPPEPAAAPVSTSELKKVVALYDYMPMNANDLQLRKGDEYFILEESNLPWWRARDKNGQEGYIPSNYVTEAEDSIEMYEWYSKHMTRSQAEQLLKQEGKEGGFIVRDSSKAGKYTVSVFAKSTGDPQGVIRHYVVCSTPQSQYYLAEKHLFSTIPELINYHQHNSAGLISRLKYPVSQQNKNAPSTAGLGYGSWEIDPKDLTFLKELGTGQFGVVKYGKWRGQYDVAIKMIKEGSMSEDEFIEEAKVMMNLSHEKLVQLYGVCTKQRPIFIITEYMANGCLLNYLREMRHRFQTQQLLEMCKDVCEAMEYLESKQFLHRDLAARNCLVNDQGVVKVSDFGLSRYVLDDEYTSSVGSKFPVRWSPPEVLMYSKFSSKSDIWAFGVLMWEIYSLGKMPYERFTNSETAEHIAQGLRLYRPHLASEKVYTIMYSCWHEKADERPTFKILLSNILDVMDEES
In the case of B1, the “phosphorylation of the peptide by the kinase, time resolved fluorescence resonance energy transfer” value is listed as “are hardly phosphorylated by Lck, Btk or IRK” in series [1]; “are hardly phosphorylated by Lck, Btk or IRK” in series [2]; “are hardly phosphorylated by Lck, Btk or IRK” in series [3].

B2: recombinant full-length human ZAP-70 (Zeta chain-associated protein of 70 kD) with N-terminal hexa-histidine tag (protein)
chain: MPDPAAHLPFFYGSISRAEAEEHLKLAGMADGLFLLRQCLRSLGGYVLSLVHDVRFHHFPIERQLNGTYAIAGGKAHCGPAELCEFYSRDPDGLPCNLRKPCNRPSGLEPQPGVFDCLRDAMVRDYVRQTWKLEGEALEQAIISQAPQVEKLIATTAHERMPWYHSSLTREEAERKLYSGAQTDGKFLLRPRKEQGTYALSLIYGKTVYHYLISQDKAGKYCIPEGTKFDTLWQLVEYLKLKADGLIYCLKEACPNSSASNASGAAAPTLPAHPSTLTHPQRRIDTLNSDGYTPEPARITSPDKPRPMPMDTSVYESPYSDPEELKDKKLFLKRDNLLIADIELGCGNFGSVRQGVYRMRKKQIDVAIKVLKQGTEKADTEEMMREAQIMHQLDNPYIVRLIGVCQAEALMLVMEMAGGGPLHKFLVGKREEIPVSNVAELLHQVSMGMKYLEEKNFVHRDLAARNVLLVNRHYAKISDFGLSKALGADDSYYTARSAGKWPLKWYAPECINFRKFSSRSDVWSYGVTMWEALSYGQKPYKKMKGPEVMAFIEQGKRMECPPECPPELYALMSDCWIYKWEDRPDFLTVEQRMRACYYSLASKVEGPPGSTQKAEAACA
Consider B2, for which the “phosphorylation of the peptide by the kinase, time resolved fluorescence resonance energy transfer (Eu-anti-phosphotyrosine / SA-APC, 665 nm)” value in series [4] is “are phosphorylated by ZAP-70 and by ZAP-70 activated by Lck”; in series [1], “are phosphorylated by ZAP-70 and by ZAP-70 activated by Lck”; in series [2], “are phosphorylated by ZAP-70 and by ZAP-70 activated by Lck”; in series [3], “are phosphorylated by ZAP-70 and by ZAP-70 activated by Lck”. The “fluorescence units (TR-FRET phosphorylation assay, 250 nM peptide, 10 nM ZAP-70, 1 µM ATP)” value in series [5] was 20,000 to 46,000 fluorescence units.

B3: ZAP-70 activated by Lck (protein)
chain: MPDPAAHLPFFYGSISRAEAEEHLKLAGMADGLFLLRQCLRSLGGYVLSLVHDVRFHHFPIERQLNGTYAIAGGKAHCGPAELCEFYSRDPDGLPCNLRKPCNRPSGLEPQPGVFDCLRDAMVRDYVRQTWKLEGEALEQAIISQAPQVEKLIATTAHERMPWYHSSLTREEAERKLYSGAQTDGKFLLRPRKEQGTYALSLIYGKTVYHYLISQDKAGKYCIPEGTKFDTLWQLVEYLKLKADGLIYCLKEACPNSSASNASGAAAPTLPAHPSTLTHPQRRIDTLNSDGYTPEPARITSPDKPRPMPMDTSVYESPYSDPEELKDKKLFLKRDNLLIADIELGCGNFGSVRQGVYRMRKKQIDVAIKVLKQGTEKADTEEMMREAQIMHQLDNPYIVRLIGVCQAEALMLVMEMAGGGPLHKFLVGKREEIPVSNVAELLHQVSMGMKYLEEKNFVHRDLAARNVLLVNRHYAKISDFGLSKALGADDSYYTARSAGKWPLKWYAPECINFRKFSSRSDVWSYGVTMWEALSYGQKPYKKMKGPEVMAFIEQGKRMECPPECPPELYALMSDCWIYKWEDRPDFLTVEQRMRACYYSLASKVEGPPGSTQKAEAACA
In the case of B3, the “phosphorylation of the peptide by the kinase, time resolved fluorescence resonance energy transfer (Eu-anti-phosphotyrosine / SA-APC, 665 nm)” value is “are phosphorylated by ZAP-70 and by ZAP-70 activated by Lck” in series [4]; “are phosphorylated by ZAP-70 and by ZAP-70 activated by Lck” in series [1]; “are phosphorylated by ZAP-70 and by ZAP-70 activated by Lck” in series [2]; “are phosphorylated by ZAP-70 and by ZAP-70 activated by Lck” in series [3]. Moreover, the “phosphorylation of the peptide with 33P-ATP, biotin capture plate, scintillation counting” value in series [1], in series [2] and in series [3] was “are phosphorylated by ZAP-70” throughout. In addition, the “Km (33P-ATP phosphorylation assay, peptide 0.08-20 µM)” value in series [6] was “Km values are in the range of from 0.4 to 2.0 µM”. For the same protein, in series [6], the “Maximal cpm (33P-ATP phosphorylation assay)” value is on record as “Maximal cpm range from 12,000 to 16,000”. Also, the “fluorescence units (TR-FRET phosphorylation assay, 250 nM peptide, 10 nM ZAP-70 plus 42 nM Lck, 1 µM ATP)” value in series [5] was 20,000 to 46,000 fluorescence units.
